Laboratory results from patent US11214614B2, “LTBP complex-specific inhibitors of TGFβ and uses thereof” (Scholar Rock, Inc., priority 2019, dated 2022).

Target: huLTBP1 proTGFβ1 (Homo sapiens, UniProt P01137+Q14766)
Experiment: SPR (Biacore 8K) monovalent binding kinetics of Fabs, biotinylated antigen captured
Design: biotin (complex biotinylated)
Settings: Table 27, Hu LTBP1-ProTGFβ1
Experimental: A Biacore 8K system was employed to determine the monovalent binding affinity and the kinetic parameters for antigen binding of test antibodies. Association and dissociation kinetics of Fab fragments SR-AB42-HuFab, SR-AB63-HuFab and SR-AB43-HuFab to antigen complexes were measured, and resulting ka, kd and KD are provided below. Briefly, the binding kinetics were evaluated by surface plasmon resonance using Biacore 8K (GE Healthcare). Biotinylated capture antigens were immobilized to the chip (10 nM, ˜200 RU loading). A Biotin CAPture sensor chip was used to capture the biotinylated antigens. Fabs at 10, 5, 2.5, 1.25, and 0.6 nM concentrations were injected over the captured antigens. 0 nM was used as a reference. Affinities of LTBP antibodies to GARP and LRRC33 were confirmed using higher concentration of Fabs (100, 50, 25, 12.5, 6.25 nM). 0 nM was used as a reference. Multi-cycle kinetics was employed where each analyte concentration was injected in a separate cycle and the sensor chip surface was regenerated after each cycle. All the assays were carried out in freshly prepared 1×HBS-EP+buffer (10 mM HEPES, 150 mM NaCl, 3 mM EDTA, 0.05% Tween20, pH 7.4). Data were fit globally to a 1:1 binding model to obtain the kinetic parameters. The sensorgram for 0 nM analyte concentration was used as reference.
• 96 well plates—Greinerbio-one REF 650101 • Microplate Foils—GE Healthcare—CAT #28-9758-16 • Biotin CAPture Kit GE Healthcare product number 28920233 • Biacore running buffer—supplied as a 20× solution, diluted in Milli-Q water, TEKnova CAT #H8022 Method:
These experiments were performed using the Biacore 8K using the method “multi-cycle kinetics/affinity using Biotin CAPture kit.”
Data collection rate was set to 10 Hz and the Biotin CAPture step was performed for 300 seconds with a flow rate of 2 μL/minute. The Biotin CAPture reagent was used after a 1:5 dilution in 1× Biacore running buffer. Biotinylated ligands (the various complexes of TGFβ1) were utilized at a concentration of 10 nM and were immobilized to the sensor chip for 180 seconds with a flow rate of 10 μL/minute. The analytes, which are each of the Fabs, were tested at 10, 5, 2.5, 1.25, and 0.625 nM with a 0 nM control included. Analyte contact time was 120 seconds and the dissociation time was 900 seconds. The regeneration cycle utilized was 120 seconds with a flow rate of 10 μL/minute.
The evaluation method used was “multi-cycle affinity using capture” and a 1:1 binding model was used. […] Global fits were utilized for every KD determination.

Sequence of huLTBP1 proTGFβ1 (P01137 30-390): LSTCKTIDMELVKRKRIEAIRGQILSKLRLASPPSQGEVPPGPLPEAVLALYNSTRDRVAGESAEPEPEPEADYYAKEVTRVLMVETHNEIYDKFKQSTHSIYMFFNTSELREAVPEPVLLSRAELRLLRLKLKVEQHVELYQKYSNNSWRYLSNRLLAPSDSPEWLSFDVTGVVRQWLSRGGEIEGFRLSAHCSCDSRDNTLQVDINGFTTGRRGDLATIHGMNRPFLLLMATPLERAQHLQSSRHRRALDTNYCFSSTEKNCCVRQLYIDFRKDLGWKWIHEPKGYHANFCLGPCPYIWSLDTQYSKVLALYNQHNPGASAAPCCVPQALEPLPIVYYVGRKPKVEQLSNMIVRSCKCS
Sequence of huLTBP1 proTGFβ1 (Q14766 347-1721 limits assumed): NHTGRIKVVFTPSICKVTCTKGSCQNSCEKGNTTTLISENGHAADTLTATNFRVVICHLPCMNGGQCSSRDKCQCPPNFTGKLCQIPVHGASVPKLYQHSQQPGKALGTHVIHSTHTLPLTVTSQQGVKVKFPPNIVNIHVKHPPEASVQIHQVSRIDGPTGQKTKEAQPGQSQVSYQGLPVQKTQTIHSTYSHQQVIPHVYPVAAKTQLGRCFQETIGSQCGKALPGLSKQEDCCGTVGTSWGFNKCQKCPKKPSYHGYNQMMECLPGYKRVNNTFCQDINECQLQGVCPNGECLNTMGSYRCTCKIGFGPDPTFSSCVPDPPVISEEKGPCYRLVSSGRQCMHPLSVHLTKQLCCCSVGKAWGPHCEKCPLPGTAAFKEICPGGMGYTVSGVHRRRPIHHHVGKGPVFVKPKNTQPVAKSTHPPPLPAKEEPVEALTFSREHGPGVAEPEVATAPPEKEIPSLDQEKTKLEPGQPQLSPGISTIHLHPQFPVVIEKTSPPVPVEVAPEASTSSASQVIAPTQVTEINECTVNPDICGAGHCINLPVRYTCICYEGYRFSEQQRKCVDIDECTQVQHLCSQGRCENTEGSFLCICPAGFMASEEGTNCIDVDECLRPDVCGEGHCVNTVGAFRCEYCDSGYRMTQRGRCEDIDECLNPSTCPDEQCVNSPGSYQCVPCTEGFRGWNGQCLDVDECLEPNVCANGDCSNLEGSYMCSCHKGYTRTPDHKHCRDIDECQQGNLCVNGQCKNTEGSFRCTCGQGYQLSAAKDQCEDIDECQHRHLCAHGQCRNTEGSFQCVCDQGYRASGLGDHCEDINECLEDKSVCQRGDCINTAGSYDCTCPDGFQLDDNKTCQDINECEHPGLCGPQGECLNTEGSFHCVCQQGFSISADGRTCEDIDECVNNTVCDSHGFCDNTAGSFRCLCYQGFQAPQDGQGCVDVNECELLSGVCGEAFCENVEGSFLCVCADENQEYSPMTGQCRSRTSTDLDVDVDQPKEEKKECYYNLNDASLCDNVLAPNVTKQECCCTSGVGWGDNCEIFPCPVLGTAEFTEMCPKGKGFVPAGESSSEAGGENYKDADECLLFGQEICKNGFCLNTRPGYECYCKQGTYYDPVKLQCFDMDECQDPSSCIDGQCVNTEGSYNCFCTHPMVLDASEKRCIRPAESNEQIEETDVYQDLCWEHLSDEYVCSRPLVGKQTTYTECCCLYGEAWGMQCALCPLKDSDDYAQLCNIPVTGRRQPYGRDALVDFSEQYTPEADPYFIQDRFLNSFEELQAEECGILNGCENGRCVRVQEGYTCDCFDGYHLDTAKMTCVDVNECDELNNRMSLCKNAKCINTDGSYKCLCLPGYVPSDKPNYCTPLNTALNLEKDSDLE

- Kd: 0.38 nM
B1: LTBP-SR-AB42 HuFab (antibody, V domains shown)
VH: QVQLVESGGGVVQPGRSLRLSCAASGFTFRSYVMHWVRQAPGKGLEWVAVISHEGSLKYYADSVKGRFTISRDNSKNTLYLQMNSLRAEDTAVYYCARPRIAARRGGFGYWGQGTLVTVSS
VL: NFMLTQPHSVSESPGKTVTISCTRSSGNIDNNYVQWYQQRPGSSPTTVIYEDNQRPSGVPDRFSGSIDSSSNSASLTISGLKTEDEADYYCQSYDYDTQGVVFGGGTKLTVL
